Experimental data: article PMC6172828

Key:
[1] = molecular target: human ATF7IP peptide, K16me3, C-terminal biotin (human); experiment: SPR; same chip and buffer, 25 °C; kinetics not fitted, KD by steady-state affinity analysis; for all tri-methylated peptides and LIG1 K126me2 G9a SET-domain in twofold dilutions from 200 µM
[2] = molecular target: human ATF7IP peptide, K16me2, C-terminal biotin (human); experiment: SPR; biotinylated peptides immobilised on streptavidin chip SA, Biacore T200, 25 °C, 10 mM HEPES pH 7.4, 150 mM NaCl; G9a SET-domain 1.5-fold dilutions from 20 or 10 µM; 1:1 binding model, KD calculated from kon and koff
[3] = molecular target: histone H3 peptide, K9me1, C-terminal biotin (human); experiment: as above
[4] = molecular target: human ATF7IP peptide, K16me1, C-terminal biotin (human); experiment: as above
[5] = molecular target: histone H3 peptide, unmodified (K9me0), C-terminal biotin (human); experiment: as above
[6] = molecular target: histone H3 peptide, K9me2, C-terminal biotin (human); experiment: as above
[7] = molecular target: human ATF7IP peptide, unmodified (K16me0), C-terminal biotin (human); experiment: as above

Kd [1]: > 1000 nM
Kd [2]: 38 nM
Kd [3]: 430 nM
Kd [4]: 43 nM
Kd [5]: 90 nM
Kd [6]: 350 nM
Kd [7]: 180 nM
Substance: human G9a SET-domain (residues 913–1193) (from UniProt Q96KQ7 913-1193) (domain or fragment)
